We go through one molecule from PMC9098466, “Substrate recognition and cryo-EM structure of the ribosome-bound TAC toxin of Mycobacterium tuberculosis” (Nature Communications, 2022).

The target in this experiment is ribosomal protein uS13 of the E. coli 70S ribosome (E. coli (endogenous in MG1655), UniProt P0A7S9 1-118). Briefly: cryo-EM structure. Conditions: both partners purified.

B1: HigB^TAC[K95A] toxin of Mycobacterium tuberculosis (enzyme)
chain: MPPPDPAAMGTWKFFRASVDGRPVFKKEFDKLPDQARAALIVLMQRYLVGDLAAGSIKPIRGDILELRWHEANNHFRVLFFRWGQHPVALTAFYANQQKTPKTKIETALDRQKIWKRAFGDTPPI
notes: also called HigB1
In the case of B1, the binding result was “binds”.
